Assay results: the supplement of paper PMC12636428

Tested on: Saccharomyces cerevisiae
Experiment: transcriptional activation domain activity (GFP:mCherry ratio, weighted mean of sorted bins, harmonized to initial dataset scale) (arbitrary fluorescence ratio units); higher = stronger transcriptional activation
Conditions: beta-estradiol 1 µM; induction time 4 h
How it was run: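 For this assay, yeast diploids with a GFP reporter carried barcoded protein tiles at URA3, each fused to an estradiol-inducible synthetic transcription factor. Induction was a 1:5 dilution into SC with 1 uM beta-estradiol for 4 hours at 30 °C, followed by sorting into 8 bins by GFP:mCherry ratio and barcode sequencing. Tiles under 50 reads were dropped, and activation activity was calculated as the read-weighted mean of bin median fluorescence, averaged across barcodes and linearly mapped onto the initial dataset scale.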

Question: Which “transcriptional activation domain activity” value does the source give for “LFSFSVAYRYFYFFWYVVLERQIRIFRWIAVSIFVWTLVIGFSLYQGLTKQYI” here?
Answer: Its value is 31800.

Question: How did the “transcriptional activation domain activity” value turn out when “HASAAPTATPAAPTVEKAKPKSREASPAKPKSPERRRPASPAPAAAVPEPVAA” was run?
Answer: The value was 32900.

Question: Which “transcriptional activation domain activity” value does the source give for “QAAQESDEESEAPNPTAKTLSKRAAEAWKQLSASDKDKYKVLADKEREEHARL” here?
Answer: The value was 28800.

Question: How did the “transcriptional activation domain activity” value turn out when “FWNLFNLVPGIQAQNLHCRYDYYPWGLSAFCQFLPIANAIGLTGSYTGIIYCC” was run?
Answer: Its value is 33900.

Question: How did the “transcriptional activation domain activity” value turn out when “RASEASVGTEGATDIPGDEKKKKRAPRKKPGEEENEAGRGKGRKRKGTNESSA” was run?
Answer: Its value is 36200.

Question: “DNDDDGETAAGGRLAHLLQILVCNAIYSFEPLLNCSQDVNNVLVVVTRYYGGI” was tested. Which “transcriptional activation domain activity” value did it give?
Answer: The value was 57500.

Question: For “TLIHEPDQLLFFPFFLFALFLSFPSFLLPSFFLLFLLFYFFPSYLLLCLFSFI”, which “transcriptional activation domain activity” value is on record?
Answer: The value was 51700.

Question: How did the “transcriptional activation domain activity” value turn out when “ILALNLSCFDTLCYCYGFWSRLFFYLLLLLMHHLHYHAIQNQSLDLFALHIYR” was run?
Answer: The value was 78000.

Question: Which “transcriptional activation domain activity” value does the source give for “MILRIWGFHYLYMLVPGWYLCFRFSFFLFYFLFLFLLQFLHITLPFSCLVSFW” here?
Answer: Its value is 46200.

Question: With “YVVVVLTAMQVGLATETLAHNKAFVTISYGFSIFSIFIPIVFTLLLLLVFFFV” as the sequence, how does the “transcriptional activation domain activity” value read?
Answer: Its value is 19400.

Question: With “IRLLISKHWLPVLFSFRGFMELTTTVPFLLSTYIPNGRYLYVPYFIRSWVLLL” as the sequence, how does the “transcriptional activation domain activity” value read?
Answer: Its value is 72800.

Question: For “GDEKKRNRERSREGGHRERSRSPDRERRSRRKRSHSRDRSSTRRRHKRHRSRS”, which “transcriptional activation domain activity” value is on record?
Answer: The value was 30400.

Question: “GPLSDEKSVKVSTFSELIGNDWQSMNFDLENNSREVTLNATSLLNENRLNQDS” was tested. Which “transcriptional activation domain activity” value did it give?
Answer: Its value is 48600.

Question: With “DLEELRHLCHALKATFTHVLSIPVCSYFYFPQTSFAMILHSIMIICRWVKLST” as the sequence, how does the “transcriptional activation domain activity” value read?
Answer: Its value is 35100.

Question: “IDGVWFAYCHLSLFALLGEHISLNATNSEFPLVPSQSWKWDDFLFSISFLETL” was tested. Which “transcriptional activation domain activity” value did it give?
Answer: The value was 71300.

Question: For “MSSNYENQAQQESDQGSSSKSQKSRHRASVACATCRERRIRCVVPAGEASCAQ”, which “transcriptional activation domain activity” value is on record?
Answer: The value was 43100.

Question: Which “transcriptional activation domain activity” value does the source give for “DEVMKIMPVQKQTRAGQRTRFKAFVVIGDSEGHVGLGVKCAKEVATAIRGAII” here?
Answer: Its value is 59300.

Question: For “WRLYMAFRTLKGKLLPCLIEANGLDLFISTFAAIVERVAEVSNLRLTSKLYQA”, which “transcriptional activation domain activity” value is on record?
Answer: The value was 44900.

Question: “EAKEGEDGEKEKPKRGRKRKEPAADAEDEAADGDAADGEEPPAKKAKPASKAA” was tested. Which “transcriptional activation domain activity” value did it give?
Answer: The value was 61800.

Question: “IFTSFLLFHDPTLFMFISYDIAYVWWVHLMERLIEPLPLMCCFLIMPMICFVI” was tested. Which “transcriptional activation domain activity” value did it give?
Answer: The value was 54400.

Question: For “AGAPVFGLPPFRWWRFNVFWMFWCFFWNLQGVINLVTLDINGYLSIFIPFITI”, which “transcriptional activation domain activity” value is on record?
Answer: Its value is 58700.

Question: With “AAKGKAAAGGGTKKKGTAGAEAETPEMATPAPEGAPNAPAKKRAKKATAAAAA” as the sequence, how does the “transcriptional activation domain activity” value read?
Answer: Its value is 36400.

Question: “MFTRYLLLLLFAPLIYILGFFAASLSTHQPDYFYTWTRDSALVAQTNDTLLHD” was tested. Which “transcriptional activation domain activity” value did it give?
Answer: The value was 30900.

Question: “LLLRSFKTFQLWTGDQCLEYLGDKFRVVLGLPDDWTNKDLGYWLLSKLVLVHL” was tested. Which “transcriptional activation domain activity” value did it give?
Answer: Its value is 73000.

Question: “MVVIWGLDLKEMQWWKFKGSYMFNQTYHLRRTKMIVYQIAMIFMVCSESVGTA” was tested. Which “transcriptional activation domain activity” value did it give?
Answer: Its value is 31600.

Question: For “AAAAAAAAETAADEKPAEEAGEPPAAEPEAAEPAKEEAAPAEEAAAAEAVPAP”, which “transcriptional activation domain activity” value is on record?
Answer: Its value is 54300.

Question: For “VYIGACWGHWAQLNVFLIPGLVVWFIDRGIRFARTALLHYNFLPSGHMGFRAA”, which “transcriptional activation domain activity” value is on record?
Answer: Its value is 77700.

Question: For “EVMKVTPVQKQTRAGQRTRFKAFVAIGDYDGHVGLGVKCAKEVASAIRGAIIL”, which “transcriptional activation domain activity” value is on record?
Answer: The value was 48700.

Question: Which “transcriptional activation domain activity” value does the source give for “MVSCYIPLLIGFLGLVGPVLSRFFFLFSLFSWLIGRLVLYLILFLSSLCHGLG” here?
Answer: Its value is 30300.

Question: With “RMVYSIRLVFHLYAELLLDRAFFLEWFLSFFAECSLDVLPLAFPIATALWDDL” as the sequence, how does the “transcriptional activation domain activity” value read?
Answer: Its value is 64600.

Question: With “MGFKLLLLLPYCTPRLIFKKLLLWLRFFFFLHFLFLPRRTLKNLAPCIFFLLY” as the sequence, how does the “transcriptional activation domain activity” value read?
Answer: The value was 40900.

Question: For “EPRQTGDSRSQSSGNTGENEEDIAFASGLNGGTFDSMLEALPDDLYFTDFVSP”, which “transcriptional activation domain activity” value is on record?
Answer: Its value is 88800.

Question: Which “transcriptional activation domain activity” value does the source give for “VAEDAVVAEDAVAAVVDVDVNHVAAAAVVDVEDVEGAEDVEGVVDAAAHRVAA” here?
Answer: The value was 16900.

Question: Which “transcriptional activation domain activity” value does the source give for “SGKLVFGPVSVFNGNVSLRIKKPLKGMTLTVTFNGVAEVDKYLFTFLNISHEV” here?
Answer: The value was 57800.

Question: “LVHNTLCMLDLIPLLSVRLLLMSLSICFGWYTIFVFAAGVIETVHLTIGRTFT” was tested. Which “transcriptional activation domain activity” value did it give?
Answer: Its value is 33900.

Question: Which “transcriptional activation domain activity” value does the source give for “LFTSIYYIIILSRSCLFFLFSLPLFQDALFLFVDSVQLYMWGILLFILSSLFF” here?
Answer: The value was 42900.

Question: For “LPGGKYLFMVMKNNGGGSEKFALVLFDVEAQMTLLKASRILLLRARYITPKTT”, which “transcriptional activation domain activity” value is on record?
Answer: Its value is 51400.

Question: For “PKRRLGVAVTWTGLTLLLLLLLLLLPSLIILPSFAACFWYIYWGILRISFFFY”, which “transcriptional activation domain activity” value is on record?
Answer: The value was 26100.

Question: How did the “transcriptional activation domain activity” value turn out when “MLHLPLFLLYFFFFSLLLYFSFFPSSFFFFLLSPPFPLLIFSLFLSFLLLFPP” was run?
Answer: Its value is 40200.

Question: How did the “transcriptional activation domain activity” value turn out when “FSFGLYLLYHSPYWMNVAQLWVNYPHIEFMPGIKKYYLIQMSYWLQQMYFIQI” was run?
Answer: The value was 48700.

Question: For “QLLLVHEGCVMDRLAIAGFEGAALARALWFASFLKGVVRQDRIMEGMYYLLAP”, which “transcriptional activation domain activity” value is on record?
Answer: The value was 26300.
